Data reported in patent publication WO2018237338A1 (dated 2018).
Changes are numbered by the printed parent chain. Numbers in names are those of the source.

B1: Clone 2F10 (antibody, human IgG1, V domains shown)
VH: EVKLQESGPGLVKPSQSLSLTCSVTGYSITSGYYWNWIRQFPGNKLEWLGYISDDGRNNYNPSLKNRISITRDTSKNQLFLKLNSVTTEDTATYYCVRGDYGPWGQGTTVTVSS
VL: DVVMTQTPLTLSVTIGQPAFISCKSNQSLLDYDGETYLNWLFLRPGQSPKRLIYLVSKQDSGVPDRFTGIGSGTDFTLKINRVEAEDLGIYYCWQGTHFPQTFGGGTKLELK
notes: Biacore: mouse variable regions with human IgG1 and kappa constant regions; A mouse IgG version was also used elsewhere
B2: Clone 3C02 (antibody, human IgG1, V domains shown)
VH: EVKLLESGGGLVQPGGSLKLSCAASGFTFSDYGMHWVRQAPEKGLEWIAYISRGSSAIYYADAVKGRFTISRDNAKNTLFLQMTSLRSEDTAMYYCRSPLRYFDVWGTGTSVTVSS
VL: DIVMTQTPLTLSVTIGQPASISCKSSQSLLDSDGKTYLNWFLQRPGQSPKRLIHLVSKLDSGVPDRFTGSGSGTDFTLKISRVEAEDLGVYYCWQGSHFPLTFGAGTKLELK
notes: Mouse variable regions with human IgG1 and kappa constant regions
B3: Clone 2D02 (antibody, V domains shown)
VH: EVKLQESGPGLVKPSQSLSLTCSVTGYSITSGYYWNWIRQFPGNKLEWLGFISSDGNSDYNPSLKNRISVTRDTSKNQFFLQLNSVTTEDTATYYCLRGDVDWGQGTTLTVSS
VL: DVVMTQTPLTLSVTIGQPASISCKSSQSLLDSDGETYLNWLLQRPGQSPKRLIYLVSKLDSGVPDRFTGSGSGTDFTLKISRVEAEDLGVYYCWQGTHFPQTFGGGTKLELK
notes: Biacore: mouse variable regions with human IgG1 and kappa constant regions
B4: Clone 2F09 (antibody, V domains shown)
VH: EVHVKQSGPELVEPGASVKISCKTSGYTFASYAISWVKQRTGQGLEWIGEIYPGSGDTYYDEKFKGKATLTADKSSSTAYMELRSLTSEDSAVYFCASDYDAYWGQGTLVTVSA
VL: DIVLTQTPLSLPVSLGDQASISCRSSQSLVHRNGNTYLHWYLQKPGQSPKLLIYRISNRFSGVPDRFSGSGSGTDFTLKISRVEAEDLGVYFCSQSTHVPLTFGAGTKLEIK
notes: as for B2
B5: 2F09/35.21.17.2 (bispecific antibody, human IgG1, kappa)
heavy 1: EVHVKQSGPELVEPGASVKISCKTSGYTFASYAISWVKQRTGQGLEWIGEIYPGSGDTYYDEKFKGKATLTADKSSSTAYMELRSLTSEDSAVYFCASDYDAYWGQGTLVTVSAASTKGPSVFPLAPSSKSTSGGTAALGCLVKDYFPEPVTVSWNSGALTSGVHTFPAVLQSSGLYSLSSVVTVPSSSLGTQTYICNVNHKPSNTKVDKKVEPKSCDKTHTCPPCPAPELLGGPSVFLFPPKPKDTLMISRTPEVTCVVVDVSHEDPEVKFNWYVDGVEVHNAKTKPREEQYNSTYRVVSVLTVLHQDWLNGKEYKCKVSNKALPAPIEKTISKAKGQPREPQVYTLPPSRDELTKNQVSLWCLVKGFYPSDIAVLWESYGTEWASYKTTPPVLDSDGSFFLYSKLTVTKEEWQQGFVFSCSVMHEALHNHYTQKSLSLSPGK
heavy 2: not shown
light: DIVLTQTPLSLPVSLGDQASISCRSSQSLVHRNGNTYLHWYLQKPGQSPKLLIYRISNRFSGVPDRFSGSGSGTDFTLKISRVEAEDLGVYFCSQSTHVPLTFGAGTKLEIKRTVAAPSVFIFPPSDEQLKSGTASVVCLLNNFYPREAKVQWKVDNALQSGNSQESVTEQDSKDSTYSLSSTLTLSKADYEKHKVYACEVTHQGLSSPVTKSFNRGEC
notes: Knob:hole:light chain were co-transfected 1:1:2
B6: 1F4/35.21.17.2 (bispecific antibody, human IgG1, kappa)
heavy 1: EVQLVESGGGLVQPKGSLKLSCAASGFSFNTYAMNWVRQAPGKGLEWVARIRTKSNNYATYYADSVKDRFTISRDDSESKFHLQMNNLKTEDTAIYYCVRQGIDFYAMDYWGQGTSVTVSSASTKGPSVFPLAPSSKSTSGGTAALGCLVKDYFPEPVTVSWNSGALTSGVHTFPAVLQSSGLYSLSSVVTVPSSSLGTQTYICNVNHKPSNTKVDKKVEPKSCDKTHTCPPCPAPELLGGPSVFLFPPKPKDTLMISRTPEVTCVVVDVSHEDPEVKFNWYVDGVEVHNAKTKPREEQYNSTYRVVSVLTVLHQDWLNGKEYKCKVSNKALPAPIEKTISKAKGQPREPQVYTLPPSRDELTKNQVSLWCLVKGFYPSDIAVLWESYGTEWASYKTTPPVLDSDGSFFLYSKLTVTKEEWQQGFVFSCSVMHEALHNHYTQKSLSLSPGK
heavy 2: not shown
light: DVLMTQSPLSLSVSLGDQASISCRSSRDIVHSNGNTYLEWYLQKPGQSPKLLIYKVSNRFSGVPDRFSGSGSGTDFTLKISRVEAEDLGVYYCFQGTLIPLTFGAGTKLELKRTVAAPSVFIFPPSDEQLKSGTASVVCLLNNFYPREAKVQWKVDNALQSGNSQESVTEQDSKDSTYSLSSTLTLSKADYEKHKVYACEVTHQGLSSPVTKSFNRGEC
B7: Clone 1F06 (antibody, V domains shown)
VH: EVKLVESGGGLVKPGGSLKLSCAASGFIFSDYGMHWVRQAPEKGLEWIAFISSGNNTVYYADTVKGRFTISRDSAKKTLFLQMTSLRSEDTAMYYCVRHSNFCDYWGQGTSVTVSS
VL: DVQMTQTPLSLPVSLGDQASISCRSSQSIVHSNGNTYLEWYLQKPGQSPKLLIYKVSNRFSGVPDRFSGSGSGTDFTLKISRVEAEDLGVYYCFQGSHVPPTFGAGTKLELK
notes: also called antibody 1F06
B8: Clone 1F06 C99M (antibody, human IgG1, V domains shown)
VH: B7 VH with C103M
VL: B7 VL
notes: Human IgG1/kappa chimeric format like 1F06; C99 (Kabat, CDR-H3) is replaced by Met; also called 1F06 C99M variant; C99M variant of 1F06

Key:
[1] = biological target: T1, human alpha-synuclein protein, monomeric (human, UniProt P37840 1-140); assay: SPR (Biacore), full-cycle kinetics: IgG captured on anti-human Fc CM5 chip, alpha-synuclein monomer injected, 1:1 Langmuir fit
[2] = biological target: human alpha-synuclein protein (full-length; monomer/oligomer form not specified at the place) (human, UniProt P37840 1-140); assay: SPR (Biacore T200), protein captured by anti-human-Fc on a CM5 chip, recombinant alpha-synuclein injected (Table 14)
[3] = biological target: T1, human alpha-synuclein protein, monomeric; assay: SPR (Biacore)
[4] = biological target: T1, human alpha-synuclein protein, monomeric; assay: SPR (Biacore), single-cycle kinetics, alpha-synuclein monomer

Binder | Kd [1] | koff [1] | kon [1] | other results
B1 | 6.7 nM | 0.00067 s⁻¹ | 100000 M⁻¹ s⁻¹ | –
B2 | 29.3 nM | 0.0012 s⁻¹ | 41000 M⁻¹ s⁻¹ | –
B3 | 6.38 nM | 0.0003 s⁻¹ | 47000 M⁻¹ s⁻¹ | –
B4 | 1.63 nM | 0.0015 s⁻¹ | 920000 M⁻¹ s⁻¹ | –
B5 | – | – | – | binding result [2]: binds
B6 | – | – | – | binding result [2]: binds
B7 | – | – | – | binding result [3]: binds
B8 | – | – | – | binding result [4]: binds
